Reference: article PMC10715077

Target: recombinant PGI protein (pGEX-4T-PGI) (Ganoderma lucidum)
Test: SPR; Biacore T200, NTA sensor chip; PGI immobilised, TLP2 as analyte at 0-400 µM (legend: 0-400 nM); 50 mM HEPES pH 7.5, 150 mM NaCl, 0.1% Tween 20

Kd: 2.21 µM
Substance: recombinant TLP2 protein (pColdI-TLP2) (natural protein)
